Earlier results in patent US20060110594A1, “Polymer-coated substrates for binding biomolecules and methods of making and using thereof” (priority 2004, published 2006).

Details: isoelectric point, listed property

B1: Myoglobin: protein immobilized on EMA, 17.6 kDa (protein, UniProt P68082 2-154, looked up)
Myoglobin: GLSDGEWQQVLNVWGKVEADIAGHGQEVLIRLFTGHPETLEKFDKFKHLKTEAEMKASEDLKKHGTVVLTALGGILKKKGHHEAELKPLAQSHATKHKIPIKYLEFISDAIIHVLHSKHPGDFGADAQGAMTKALELFRNDIAAKYKELGFQG
modifications: immobilized on EMA
notes: protein immobilized on EMA, 17.6 kDa
Q: Which pI does the source give for B1 here?
A: Its pI is 7.2.
